Data reported in US20250101096A1 (SERA PROGNOSTICS, published 2025).

Assays:
[1] = molecular target: T1, anti-IBP4 antibody clone variant 7D6.G4; test: ECLIA, peptide competes with IBP4 for the antibody
T1 construct: Mouse monoclonal; variant form; also called IBP4 (7D6.G4) V2; IBP4-7D6.G4

[2] = molecular target: T2, anti-IBP4 antibody clone variant 5B3.G9; test: ECLIA, peptide competes with IBP4 for the antibody
T2 construct: Mouse monoclonal; variant form expressed in CHO cells; also called IBP4 (5B3.G9) V1; IBP4-5B3.G9

[3] = molecular target: T3, human insulin-like growth factor binding protein 4 (IBP4) (human, UniProt P22692 22-258); test: AC-MS, mAb on M-PVA beads, QC2 serum, round 3 (beads reused)
T3 construct: also called IBP4 protein; IGFBP4
T3 sequence: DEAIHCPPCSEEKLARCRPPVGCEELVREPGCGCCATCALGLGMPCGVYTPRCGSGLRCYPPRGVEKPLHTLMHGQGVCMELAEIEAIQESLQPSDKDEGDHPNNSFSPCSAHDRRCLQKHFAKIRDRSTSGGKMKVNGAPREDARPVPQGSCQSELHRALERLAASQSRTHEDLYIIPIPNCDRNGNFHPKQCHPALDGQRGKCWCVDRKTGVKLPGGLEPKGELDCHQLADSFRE

[4] = molecular target: T3, human insulin-like growth factor …; test: AC-MS, mAb on M-PVA beads, pooled pregnant serum
Source text: (§1) Anti-IBP4 antibody evaluation and selection. A total of 8 hybridoma clones (1H9.B6, 5C11.A7, 7G11.H4, 3D4.E9, 1G3.A3, 8G4.G11, 5F10.B2, and 3D8.A11) were produced according to the “additional production of anti-IBP4 antibodies” methods disclosed in Example 1 and screened by AC-MS, shown in Table 10 below. Monoclonal antibodies from these clones purified by protein-G affinity chromatography were covalently coupled to M-PVA magnetic beads and used in AC-MS experiments using pooled pregnant serum. The 5B3.G9 anti-IBP4 antibody clone was included in this analysis for comparison to the performance of the additional IBP4 antibodies, as shown and italicized in Table 10 below. Table 10 includes a summary of the additional antibodies Response Ratios and shared epitope binding results as determined by the competitive binding assays of Example 3.

[5] = molecular target: T3, human insulin-like growth factor …; test: SPR, format and IBP4 form not stated
[6] = molecular target: T3, human insulin-like growth factor …; test: AC-MS, mAb on M-PVA beads, pooled pregnant serum, peptide …
Source text: as §1

[7] = molecular target: T3, human insulin-like growth factor …; test: AC-MS, mAb on M-PVA beads, QC2 serum, round 2 (beads reused)
[8] = molecular target: T3, human insulin-like growth factor …; test: AC-MS, mAb on M-PVA beads, QC2 serum, round 1
[9] = molecular target: T4, human sex hormone-binding globulin (SHBG) (human, UniProt P04278 30-402, O-linked glycan at T36 (native glycosylated form)); test: SPR (Biacore T100), mAb captured on anti-mouse IgG, SHBG antigen injected, average of 3 assays
T4 construct: Purified human SHBG, the SHBG antigen of the SPR runs, or SHBG in human serum; also called SHBG protein
T4 sequence: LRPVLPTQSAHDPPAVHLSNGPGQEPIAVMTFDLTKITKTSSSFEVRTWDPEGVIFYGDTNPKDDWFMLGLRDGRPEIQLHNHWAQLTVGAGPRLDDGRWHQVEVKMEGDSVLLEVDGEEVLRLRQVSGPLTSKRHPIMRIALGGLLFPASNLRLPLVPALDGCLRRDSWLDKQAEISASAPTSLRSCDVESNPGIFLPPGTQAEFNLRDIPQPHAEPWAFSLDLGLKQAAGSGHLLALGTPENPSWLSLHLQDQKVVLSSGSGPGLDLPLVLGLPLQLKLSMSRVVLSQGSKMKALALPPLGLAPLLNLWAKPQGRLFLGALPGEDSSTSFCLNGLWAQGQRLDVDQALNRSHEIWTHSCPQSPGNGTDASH
Experimental: (§2) Surface plasmon resonance experiments were performed on a BiacoreT100 to characterize the anti-SHBG and anti-IBP4 antibodies. Anti-mouse-IgG antibody was amine coupled to ˜500 RU on a C1 sensor chip using standard NHS/EDC activation. Test monoclonal antibodies were captured on the anti-mouse-IgG surfaces. The binding for the Sex Hormone Binding Globulin Antigen to anti-SHBG variant antibodies 4G10.F8 and 13C9.E5 were measured in a multi-cycle kinetic mode. Binding studies were performed in PBS buffer+0.05% P20+3 mM EDTA at 25 degrees C. SHBG was captured for 1 minute at 200 nM and regenerated with 1/100 H3PO4 after each cycle. SHBG was captured to similar densities on 2 different flow cells followed by an injection of the SHBG antigen in a 3-fold titration series up to 600 nM over the two surfaces. The responses were processed by subtracting the buffer injection to correct for drift. The data sets fit well to a simple 1:1 interaction model using SCRUBBER (Biologic Software Pty Ltd). The antigen concentration series was tested three times over each surface, giving rise to the kinetic an affinity parameters summarized below.

[10] = molecular target: T4, human sex hormone-binding globulin …; test: SPR (Biacore T100), mAb captured on anti-mouse IgG, SHBG antigen injected, 1:1 fit, assay 3
Experimental: as §2

[11] = molecular target: T4, human sex hormone-binding globulin …; test: SPR (Biacore T100), mAb captured on anti-mouse IgG, SHBG antigen injected, 1:1 fit, assay 1
Experimental: as §2

[12] = molecular target: T4, human sex hormone-binding globulin …; test: SPR (Biacore T100), mAb captured on anti-mouse IgG, SHBG antigen injected, 1:1 fit, assay 2
Experimental: as §2

T2 sequence (heavy, as listed by the source, chain 1 of 2): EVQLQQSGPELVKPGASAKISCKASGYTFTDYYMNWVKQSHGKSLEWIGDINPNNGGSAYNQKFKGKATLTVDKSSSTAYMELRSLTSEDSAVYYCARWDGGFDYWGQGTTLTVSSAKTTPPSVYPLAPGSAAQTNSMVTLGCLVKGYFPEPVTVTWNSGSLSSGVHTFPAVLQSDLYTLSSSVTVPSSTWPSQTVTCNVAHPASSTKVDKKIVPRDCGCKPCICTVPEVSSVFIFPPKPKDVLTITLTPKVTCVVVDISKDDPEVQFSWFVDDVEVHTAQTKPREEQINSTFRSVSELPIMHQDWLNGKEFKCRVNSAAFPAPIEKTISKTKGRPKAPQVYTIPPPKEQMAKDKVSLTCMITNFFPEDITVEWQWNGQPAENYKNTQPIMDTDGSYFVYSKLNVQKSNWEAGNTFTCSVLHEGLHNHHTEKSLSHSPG
T2 sequence (light, as listed by the source, chain 2 of 2): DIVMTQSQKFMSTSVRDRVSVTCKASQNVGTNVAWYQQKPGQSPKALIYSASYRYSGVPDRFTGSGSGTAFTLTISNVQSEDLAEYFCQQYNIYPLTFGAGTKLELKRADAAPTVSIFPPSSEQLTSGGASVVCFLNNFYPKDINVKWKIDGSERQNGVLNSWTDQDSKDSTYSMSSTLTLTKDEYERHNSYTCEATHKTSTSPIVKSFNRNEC
T1 sequence (VH, as listed by the source, chain 1 of 2): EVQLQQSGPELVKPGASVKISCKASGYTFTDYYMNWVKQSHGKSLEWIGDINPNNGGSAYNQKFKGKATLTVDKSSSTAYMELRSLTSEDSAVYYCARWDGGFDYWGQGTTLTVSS
T1 sequence (VL, as listed by the source, chain 2 of 2): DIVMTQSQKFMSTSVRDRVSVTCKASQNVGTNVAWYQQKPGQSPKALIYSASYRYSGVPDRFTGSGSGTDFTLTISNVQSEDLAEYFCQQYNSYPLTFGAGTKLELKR

Q: Does HPKQCHPALDGQRGK [G6] bind [1]?
A: Result: no binding (tested: about 7 ul of peptide)

Q: Does HPKQCHPALDGQRGK [G6] bind [2]?
A: Result: no binding (tested: about 7 ul of peptide)

B1: anti-IBP4 antibody 3D4.E9 (antibody, mouse IgG2b, kappa, V domains shown)
VH: QVQLQQSGAELVRPGASVTLSCKASGYTFTDYEMHWVKQTPVHGLEWIGAIDPETGGAAYNQKFKGKAILTADKSSSTAYMELRSLTSEDSAVYYCTRARGSSSVYYFDYWGQGTTLTVSS
VL: DIVMTQSQKFMSTSVGDRVSVTCKASQNVGTNVAWYQQKPGQSPKALIYSTSYRYSGVPDRFTGSRSGTDFILTISNVQSEDLAEYFCQQYDSYPLTFGSGTKLEIKR
notes: Mouse hybridoma mAb raised against FL IBP4; also called IBP4-3D4.E9
Q: B1 was tested. Which “ave RR” value [3] did it give?
A: Its value is 0.454.

Q: And the “ave IBP4 AC-MS RR” value [4]?
A: Its value is 0.439.

Q: And the Kd [5]?
A: The Kd was 8 nM.

Q: And the koff [5]?
A: The koff was 0.00221 s⁻¹.

Q: And the kon [5]?
A: The kon was 270000 M⁻¹ s⁻¹.

Q: What about the t1/2 [5] of the same binder?
A: Its t1/2 is 5.23 min.

Q: And the “Response Ratio” value [6]?
A: The value was 0.439.

Q: And the “ave RR” value [7]?
A: The value was 0.468.

Q: And the “ave RR” value [8]?
A: The value was 0.491.

B2: anti-SHBG antibody clone variant 13C9.E5 (antibody, mouse IgG1, kappa, V domains shown)
VH: QIQLQQPGAELVKPGASVKMSCKASGYTFTGYWMHWVKQRPGQGLEWIGVIDPSDTYTNYNQKFRGKATLTVDTSSSTAYMQLSGLTSEDSAVYYCTRDPLVTADFDYWGQGTTLTVSS
VL: DIVMTQSQKFMSTSVGDRVSVTCKASQNVDTNVAWYRQKPGQSPKALIYSASYRFSGVPDRFTGSGSGTDFTLTISNFQSEDLAEYFCQQYDSYPYTFGGGTKLEIKR
notes: Mouse monoclonal; variant form; also called SHBG (13C9.E5) Anti SHBG v2; SHBG #16
Q: Which Kd [9] does the source give for B2 here?
A: The Kd was 0.8 nM.

Q: And the koff [9]?
A: Its koff is 8e-05 s⁻¹.

Q: What about the kon [9] of the same binder?
A: The kon was 103000 M⁻¹ s⁻¹.

Q: And the Kd [10]?
A: Its Kd is 1.27 nM.

Q: And the koff [10]?
A: Its koff is 0.000119 s⁻¹.

Q: What about the kon [10] of the same binder?
A: The kon was 94100 M⁻¹ s⁻¹.

Q: And the Kd [11]?
A: Its Kd is 0.415 nM.

Q: And the koff [11]?
A: Its koff is 4.54e-05 s⁻¹.

Q: What about the kon [11] of the same binder?
A: The kon was 109000 M⁻¹ s⁻¹.

Q: What about the Kd [12] of the same binder?
A: The Kd was 0.765 nM.

Q: And the koff [12]?
A: The koff was 7.94e-05 s⁻¹.

Q: And the kon [12]?
A: Its kon is 104000 M⁻¹ s⁻¹.

B3: anti-IBP4 antibody 1G3.A3 (antibody, mouse IgG1)
heavy: QVQLQQSGAELVRPGASVTLSCKASGYTFTDYEMHWVKQTPVHGLEWIGAIDPETGGIAYNQKFRGKAILTADKSSSTAYMELRSLTSEDSAVYYCARNYGISSYYAVDYWGQGTSVTVSSAKTTPPSVYPLAPGSAAQTNSMVTLGCLVKGYFPEPVTVTWNSGSLSSGVHTFPAVLQSDLYTLSSSVTVPSSTWPSQTVTCNVAHPASSTKVDKKIVPRDCGCKPCICTVPEVSSVFIFPPKPKDVLTITLTPKVTCVVVDISKDDPEVQFSWFVDDVEVHTAQTKPREEQINSTFRSVSELPIMHQDWLNGKEFKCRVNSAAFPAPIEKTISKTKGRPKAPQVYTIPPPKEQMAKDKVSLTCMITNFFPEDITVEWQWNGQPAENYKNTQPIMDTDGSYFVYSKLNVQKSNWEAGNTFTCSVLHEGLHNHHTEKSLSHSPGK
light: DIVMTQSQKFMSTTVGERVSITCKASQNVGTAVAWYQQKPGQSPKLLIYSASNRYTGVPDRFTGSGSGTDFTLTISNMQSEDLADYVSQQYSSYPLTFGAGTKLELK
notes: Mouse hybridoma mAb raised against FL IBP4; also called IBP4-1G3.A3
Q: With B3 as the binder, how does the “ave RR” value [3] read?
A: The value was 0.289.

Q: And the “ave IBP4 AC-MS RR” value [4]?
A: The value was 0.272.

Q: What about the Kd [5] of the same binder?
A: Its Kd is 22 nM.

Q: What about the koff [5] of the same binder?
A: Its koff is 0.0033 s⁻¹.

Q: And the kon [5]?
A: Its kon is 160000 M⁻¹ s⁻¹.

Q: What about the t1/2 [5] of the same binder?
A: Its t1/2 is 3.5 min.

Q: And the “Response Ratio” value [6]?
A: Its value is 0.272.

Q: And the “ave RR” value [7]?
A: The value was 0.291.

Q: What about the “ave RR” value [8] of the same binder?
A: The value was 0.281.

Q: Does LDGQRGKCWCVDRKT [G10] bind [1]?
A: Result: binds

Q: Does LDGQRGKCWCVDRKT [G10] bind [2]?
A: Result: binds

Q: Which results are given for PALDGQRGKCWCVDR [G9]?
A: binding result [1]: binds; binding result [2]: binds

Q: Does CHPALDGQRGKCWCV [G8] bind [1]?
A: Result: binds

Q: Does CHPALDGQRGKCWCV [G8] bind [2]?
A: Result: binds

Q: What does the source list for VDRKTGVKLPGGLEP [H3]?
A: binding result [1]: no binding (tested: about 7 ul of peptide); binding result [2]: no binding (tested: about 7 ul of peptide)
